Measured values published in patent US20050079543A1 (ROCKEFELLER UNIVERSITY, published 2005).

Tests used:
[1] = target: T1, Stat91L, activated (from IFN-γ-treated C91L or Cmx cells) (human, UniProt P42224 2-750, activated by IFN-γ treatment of the cells; phosphotyrosine at 701 as stated for Stat91); assay: gel mobility shift with extracts of cells that express both proteins, with antisera
T1 construct: Expressed in U3A cells that lack Stat91/84; also called long form of Stat91; MNC-91L product; not shown: C-terminal tag of 34 amino acids encoded by the pMNC vector
T1 sequence: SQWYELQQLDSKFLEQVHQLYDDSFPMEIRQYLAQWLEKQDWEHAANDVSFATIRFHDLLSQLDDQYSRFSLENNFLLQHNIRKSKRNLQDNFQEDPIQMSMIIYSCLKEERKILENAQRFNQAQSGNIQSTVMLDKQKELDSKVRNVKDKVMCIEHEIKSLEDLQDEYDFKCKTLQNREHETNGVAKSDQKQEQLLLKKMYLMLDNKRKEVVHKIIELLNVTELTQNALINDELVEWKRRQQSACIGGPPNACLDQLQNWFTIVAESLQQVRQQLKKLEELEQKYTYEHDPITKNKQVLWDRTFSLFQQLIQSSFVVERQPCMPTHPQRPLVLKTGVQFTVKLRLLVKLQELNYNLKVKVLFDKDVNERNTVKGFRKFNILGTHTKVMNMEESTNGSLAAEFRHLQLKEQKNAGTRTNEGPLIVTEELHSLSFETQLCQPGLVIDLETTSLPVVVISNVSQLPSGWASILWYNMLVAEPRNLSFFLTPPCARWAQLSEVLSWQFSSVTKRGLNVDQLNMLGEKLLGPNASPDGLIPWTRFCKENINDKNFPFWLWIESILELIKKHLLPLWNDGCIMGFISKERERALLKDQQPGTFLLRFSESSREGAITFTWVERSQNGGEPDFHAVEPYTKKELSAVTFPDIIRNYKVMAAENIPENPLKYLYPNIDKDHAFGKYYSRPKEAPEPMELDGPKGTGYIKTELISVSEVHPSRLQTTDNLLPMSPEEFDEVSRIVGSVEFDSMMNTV
Protocol: (§1) Mobility shift analysis was performed with extracts from these stable cell lines (FIG. 18B). Extracts of IFN-γ-treated C84 cells produced a faster migrating gel shift band than extracts of treated C91L cells. Most importantly, extracts from IFN-γ-treated Cmx cells expressing both Stat84 and Stat91L proteins formed an additional intermediate gel shift band. Anti-91, an antiserum against the C-terminal 38 amino acids of Stat91 (12) that are absent in Stat84, specifically removed the top two shift bands seen with the Cmx extracts. Anti-91, an antiserum against amino acids 609 to 716 (15) that recognizes both Stat91L and Stat84, proteins inhibited the binding of all three shift bands. Thus, the middle band formed by extracts of the Cmx cells is clearly identified as a heterodimer of Stat84 and Stat91L. We concluded that both Stat91 and Stat84 bind DNA as homodimers and, if present in the same cell, will form heterodimers.

[2] = target: the molecule itself; assay: gel mobility shift with extracts of C84 cells
Protocol: as §1

binding result [1]: binds
B1: Stat84, activated (from IFN-γ-treated C84 or Cmx cells) (other)
chain: SQWYELQQLDSKFLEQVHQLYDDSFPMEIRQYLAQWLEKQDWEHAANDVSFATIRFHDLLSQLDDQYSRFSLENNFLLQHNIRKSKRNLQDNFQEDPIQMSMIIYSCLKEERKILENAQRFNQAQSGNIQSTVMLDKQKELDSKVRNVKDKVMCIEHEIKSLEDLQDEYDFKCKTLQNREHETNGVAKSDQKQEQLLLKKMYLMLDNKRKEVVHKIIELLNVTELTQNALINDELVEWKRRQQSACIGGPPNACLDQLQNWFTIVAESLQQVRQQLKKLEELEQKYTYEHDPITKNKQVLWDRTFSLFQQLIQSSFVVERQPCMPTHPQRPLVLKTGVQFTVKLRLLVKLQELNYNLKVKVLFDKDVNERNTVKGFRKFNILGTHTKVMNMEESTNGSLAAEFRHLQLKEQKNAGTRTNEGPLIVTEELHSLSFETQLCQPGLVIDLETTSLPVVVISNVSQLPSGWASILWYNMLVAEPRNLSFFLTPPCARWAQLSEVLSWQFSSVTKRGLNVDQLNMLGEKLLGPNASPDGLIPWTRFCKENINDKNFPFWLWIESILELIKKHLLPLWNDGCIMGFISKERERALLKDQQPGTFLLRFSESSREGAITFTWVERSQNGGEPDFHAVEPYTKKELSAVTFPDIIRNYKVMAAENIPENPLKYLYPNIDKDHAFGKYYSRPKEAPEPMELDGPKGTGYIKTELISVSEV
modifications: activated by IFN-γ treatment of the cells (tyrosine phosphorylation; Tyr-701 is stated for Stat91)
notes: Expressed in U3A cells that lack Stat91/84; also called MNC-84 product
binding result [2]: binds
